From patent US20140093496A1 (Chugai, published 2014)

Legend:
[1] = molecular target: T1, FcγRIIb extracellular domain with C-terminal His tag (human, UniProt P31994 43-217); experiment: SPR (Biacore), antibody captured, FcγR analyte
T1 construct: extracellular domain; also called FcgRIIb; FcγRIIb extracellular region; not shown: His tag at the C terminus
T1 sequence (looked up): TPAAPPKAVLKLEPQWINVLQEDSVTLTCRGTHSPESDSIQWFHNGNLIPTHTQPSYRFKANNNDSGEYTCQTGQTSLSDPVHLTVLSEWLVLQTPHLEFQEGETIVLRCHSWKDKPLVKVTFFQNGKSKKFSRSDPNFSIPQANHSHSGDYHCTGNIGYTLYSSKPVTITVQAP
From the text: (§1) Furthermore, KD(IIaR)/KD(IIb) and KD(IIaH)/KD(IIb) in the table respectively show the value obtained by dividing the KD value of each variant for FcγRIIaR by the KD value of each variant for FcγRIIb, and the value obtained by dividing the KD value of each variant for FcγRIIaH by the KD value of each variant for FcγRIIb. KD(IIb) of the parent polypeptide/KD(IIb) of the altered polypeptide refers to a value obtained by dividing the KD value of the parent polypeptide for FcγRIIb by the KD value of each variant for FcγRIIb.
(§2) Kinetic analyses for calculating the KD values of each altered antibody for FcγR were performed according to the following method. First, antibodies of interest were captured onto the above-mentioned sensor chips, and an Fcγ receptor diluted with the running buffer was allowed to interact. The Biacore Evaluation Software was used to globally fit the measured results to the obtained sensorgram using the 1:1 Langmuir binding model, and the association rate constant ka (L/mol/s) and the dissociation rate constant kd (1/s) were calculated; and from those values the dissociation constants KD (mol/L) were calculated.

[2] = molecular target: T2, FcγRIIIa type V extracellular domain with C-terminal His tag (human, UniProt P08637 17-208); experiment: SPR (Biacore), antibody captured, FcγR analyte
T2 construct: extracellular domain; also called FcγRIIIaV; FcgRIIIaV; not shown: His tag at the C terminus
T2 sequence (P08637 17-208 F176V): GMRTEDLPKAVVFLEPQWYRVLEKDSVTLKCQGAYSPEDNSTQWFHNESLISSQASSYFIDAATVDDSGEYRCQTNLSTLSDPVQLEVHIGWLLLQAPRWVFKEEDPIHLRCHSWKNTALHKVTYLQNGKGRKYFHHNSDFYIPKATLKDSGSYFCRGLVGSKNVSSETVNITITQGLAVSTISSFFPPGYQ
From the text: as §1, §2

[3] = molecular target: T3, FcγRIIa type R extracellular domain with C-terminal His tag (human, UniProt P12318 34-217); experiment: SPR (Biacore), antibody captured, FcγR analyte
T3 chain: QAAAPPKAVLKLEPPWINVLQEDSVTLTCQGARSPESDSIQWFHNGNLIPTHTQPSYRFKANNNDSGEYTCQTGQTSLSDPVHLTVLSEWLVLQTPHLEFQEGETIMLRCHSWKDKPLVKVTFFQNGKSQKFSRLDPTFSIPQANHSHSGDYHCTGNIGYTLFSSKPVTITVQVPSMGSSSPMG
From the text: as §1, §2

[4] = molecular target: T4, FcγRIIb extracellular domain, C-terminal His tag (human, UniProt P31994 43-217); experiment: SPR (Biacore), antibody captured, FcγR as analyte
T4 construct: extracellular domain; also called FcgRIIb; CD32B; not shown: His tag at the C terminus
T4 sequence (looked up): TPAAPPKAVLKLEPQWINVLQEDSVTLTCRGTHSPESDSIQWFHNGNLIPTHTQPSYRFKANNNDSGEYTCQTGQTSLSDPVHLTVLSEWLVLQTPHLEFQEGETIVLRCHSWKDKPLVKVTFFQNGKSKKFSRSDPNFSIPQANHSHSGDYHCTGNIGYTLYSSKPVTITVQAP
From the text: as §1, with “respectively represent” for “respectively show”, “to the” for “to a”
as §2

[5] = molecular target: T5, FcγRIIa type R extracellular domain, C-terminal His tag (human, UniProt P12318 34-217); experiment: SPR (Biacore), antibody captured, FcγR as analyte
T5 construct: extracellular domain; also called FcgRIIaR; FcγRIIaR; not shown: His tag at the C terminus
T5 sequence (looked up): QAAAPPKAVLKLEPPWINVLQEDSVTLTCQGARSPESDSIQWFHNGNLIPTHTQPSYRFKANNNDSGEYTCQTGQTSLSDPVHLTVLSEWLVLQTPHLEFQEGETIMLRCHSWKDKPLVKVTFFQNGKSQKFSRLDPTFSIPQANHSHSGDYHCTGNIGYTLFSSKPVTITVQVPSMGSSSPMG
From the text: as §1, with “respectively represent” for “respectively show”, “to the” for “to a”
as §2

[6] = molecular target: T1, FcγRIIb extracellular domain with …; experiment: SPR (Biacore): antibody captured on the chip, FcγRIIb as analyte; amount bound per amount captured, relative to GpH7-B3/GpL16-k0 = 100

| Binder | Kd [4] [µM] | binding result [6] | other results |
| --- | --- | --- | --- |
| IL6R-PD042/IL6R-L (antibody, human IgG1, kappa, IL6R-F11 with P238D/L234W; copies: 2 + 2) heavy: QVQLQESGPGLVKPSETLSLTCAVSGHSISHDHAWSWVRQPPGEGLEWIGFISYSGITNYNPSLQGRVTISRDNSKNTLYLQMNSLRAEDTAVYYCARSLARTTAMDYWGEGTLVTVSSASTKGPSVFPLAPSSKSTSGGTAALGCLVKDYFPEPVTVSWNSGALTSGVHTFPAVLQSSGLYSLSSVVTVPSSSLGTQTYICNVNHKPSNTKVDKKVEPKSCDKTHTCPPCPAPEWLGGDSVFLFPPKPKDTLYISRTPEVTCVVVDVSHEDPEVKFNWYVDGVEVHNAKTKPREEQYNSTYRVVSVLTVLHQDWLNGKEYKCKVSNKALPAPIEKTISKAKGQPREPQVYTLPPSRDELTKNQVSLTCLVKGFYPSDIAVEWESNGQPENNYKTTPPVLDSDGSFFLYSKLTVDKSRWQQGNVFSCSVMHEALHYHYTQKSLSLSP light: not shown |  |  | Kd [1]: 2 µM; Kd [2]: 37 µM; Kd [3]: 16 µM |
| IL6R-BP136/IL6R-L (antibody, human IgG1, kappa, IgG1; P238D/K326A (EU numbering) introduced into IL6R-B3) heavy: QVQLQESGPGLVKPSETLSLTCAVSGHSISHDHAWSWVRQPPGEGLEWIGFISYSGITNYNPSLQGRVTISRDNSKNTLYLQMNSLRAEDTAVYYCARSLARTTAMDYWGEGTLVTVSSASTKGPSVFPLAPSSKSTSGGTAALGCLVKDYFPEPVTVSWNSGALTSGVHTFPAVLQSSGLYSLSSVVTVPSSSLGTQTYICNVNHKPSNTKVDKKVEPKSCDKTHTCPPCPAPELLGGDSVFLFPPKPKDTLMISRTPEVTCVVVDVSHEDPEVKFNWYVDGVEVHNAKTKPREEQYNSTYRVVSVLTVLHQDWLNGKEYKCKVSNAALPAPIEKTISKAKGQPREPQVYTLPPSRDELTKNQVSLTCLVKGFYPSDIAVEWESNGQPENNYKTTPPVLDSDGSFFLYSKLTVDKSRWQQGNVFSCSVMHEALHNHYTQESLSLSP light: not shown | 0.8 |  |  |
| IL6R-BP117/IL6R-L (antibody, human IgG1, kappa, IgG1; P238D/K326D (EU numbering) introduced into IL6R-B3) heavy: QVQLQESGPGLVKPSETLSLTCAVSGHSISHDHAWSWVRQPPGEGLEWIGFISYSGITNYNPSLQGRVTISRDNSKNTLYLQMNSLRAEDTAVYYCARSLARTTAMDYWGEGTLVTVSSASTKGPSVFPLAPSSKSTSGGTAALGCLVKDYFPEPVTVSWNSGALTSGVHTFPAVLQSSGLYSLSSVVTVPSSSLGTQTYICNVNHKPSNTKVDKKVEPKSCDKTHTCPPCPAPELLGGDSVFLFPPKPKDTLMISRTPEVTCVVVDVSHEDPEVKFNWYVDGVEVHNAKTKPREEQYNSTYRVVSVLTVLHQDWLNGKEYKCKVSNDALPAPIEKTISKAKGQPREPQVYTLPPSRDELTKNQVSLTCLVKGFYPSDIAVEWESNGQPENNYKTTPPVLDSDGSFFLYSKLTVDKSRWQQGNVFSCSVMHEALHNHYTQESLSLSP light: not shown | 0.8 |  | Kd [5]: 9.2 µM |
| IL6R-BP102/IL6R-L (antibody, human IgG1, kappa, IgG1; P238D/S267Q (EU numbering) introduced into IL6R-B3) heavy: QVQLQESGPGLVKPSETLSLTCAVSGHSISHDHAWSWVRQPPGEGLEWIGFISYSGITNYNPSLQGRVTISRDNSKNTLYLQMNSLRAEDTAVYYCARSLARTTAMDYWGEGTLVTVSSASTKGPSVFPLAPSSKSTSGGTAALGCLVKDYFPEPVTVSWNSGALTSGVHTFPAVLQSSGLYSLSSVVTVPSSSLGTQTYICNVNHKPSNTKVDKKVEPKSCDKTHTCPPCPAPELLGGDSVFLFPPKPKDTLMISRTPEVTCVVVDVQHEDPEVKFNWYVDGVEVHNAKTKPREEQYNSTYRVVSVLTVLHQDWLNGKEYKCKVSNKALPAPIEKTISKAKGQPREPQVYTLPPSRDELTKNQVSLTCLVKGFYPSDIAVEWESNGQPENNYKTTPPVLDSDGSFFLYSKLTVDKSRWQQGNVFSCSVMHEALHNHYTQESLSLSP light: not shown | 0.9 |  | Kd [5]: 8.4 µM |
| IL6R-BP120/IL6R-L (antibody, human IgG1, kappa, IgG1; P238D/K326E (EU numbering) introduced into IL6R-B3) heavy: QVQLQESGPGLVKPSETLSLTCAVSGHSISHDHAWSWVRQPPGEGLEWIGFISYSGITNYNPSLQGRVTISRDNSKNTLYLQMNSLRAEDTAVYYCARSLARTTAMDYWGEGTLVTVSSASTKGPSVFPLAPSSKSTSGGTAALGCLVKDYFPEPVTVSWNSGALTSGVHTFPAVLQSSGLYSLSSVVTVPSSSLGTQTYICNVNHKPSNTKVDKKVEPKSCDKTHTCPPCPAPELLGGDSVFLFPPKPKDTLMISRTPEVTCVVVDVSHEDPEVKFNWYVDGVEVHNAKTKPREEQYNSTYRVVSVLTVLHQDWLNGKEYKCKVSNEALPAPIEKTISKAKGQPREPQVYTLPPSRDELTKNQVSLTCLVKGFYPSDIAVEWESNGQPENNYKTTPPVLDSDGSFFLYSKLTVDKSRWQQGNVFSCSVMHEALHNHYTQESLSLSP light: not shown | 1 |  | Kd [5]: 9.6 µM |
| G237A (antibody, human IgG1, kappa, Named on the sheet only by its alteration; also called B3 variant of GpH7-B3/GpL16-k0 with G237A (no P238D)) heavy chain: not shown light chain: DIVMTQSPLSLPVTPGEPASISCQASESLVHSNRNTYLHWYLQKPGQSPQLLIYKVSNRFSGVPDRFSGSGSGTDFTLKISRVEAEDVGVYYCSQNTHVPPTFGQGTKVEIERTVAAPSVFIFPPSDEQLKSGTASVVCLLNNFYPREAKVQWKVDNALQSGNSQESVTEQDSKDSTYSLSSTLTLSKADYEKHKVYACEVTHQGLSSPVTKSFNRGEC |  | binds |  |
| G237L (antibody, human IgG1, kappa, Named on the sheet only by its alteration; also called B3 variant of GpH7-B3/GpL16-k0 with G237L (no P238D)) heavy chain: not shown light chain: DIVMTQSPLSLPVTPGEPASISCQASESLVHSNRNTYLHWYLQKPGQSPQLLIYKVSNRFSGVPDRFSGSGSGTDFTLKISRVEAEDVGVYYCSQNTHVPPTFGQGTKVEIERTVAAPSVFIFPPSDEQLKSGTASVVCLLNNFYPREAKVQWKVDNALQSGNSQESVTEQDSKDSTYSLSSTLTLSKADYEKHKVYACEVTHQGLSSPVTKSFNRGEC |  | binds |  |
| G237Y (antibody, human IgG1, kappa, Named on the sheet only by its alteration; also called B3 variant of GpH7-B3/GpL16-k0 with G237Y (no P238D)) heavy chain: not shown light chain: DIVMTQSPLSLPVTPGEPASISCQASESLVHSNRNTYLHWYLQKPGQSPQLLIYKVSNRFSGVPDRFSGSGSGTDFTLKISRVEAEDVGVYYCSQNTHVPPTFGQGTKVEIERTVAAPSVFIFPPSDEQLKSGTASVVCLLNNFYPREAKVQWKVDNALQSGNSQESVTEQDSKDSTYSLSSTLTLSKADYEKHKVYACEVTHQGLSSPVTKSFNRGEC |  | binds |  |
| G237M (antibody, human IgG1, kappa, Named on the sheet only by its alteration; also called B3 variant of GpH7-B3/GpL16-k0 with G237M (no P238D)) heavy chain: not shown light chain: DIVMTQSPLSLPVTPGEPASISCQASESLVHSNRNTYLHWYLQKPGQSPQLLIYKVSNRFSGVPDRFSGSGSGTDFTLKISRVEAEDVGVYYCSQNTHVPPTFGQGTKVEIERTVAAPSVFIFPPSDEQLKSGTASVVCLLNNFYPREAKVQWKVDNALQSGNSQESVTEQDSKDSTYSLSSTLTLSKADYEKHKVYACEVTHQGLSSPVTKSFNRGEC |  | binds |  |
| G237E (antibody, human IgG1, kappa, Named on the sheet only by its alteration; also called B3 variant of GpH7-B3/GpL16-k0 with G237E (no P238D)) heavy chain: not shown light chain: DIVMTQSPLSLPVTPGEPASISCQASESLVHSNRNTYLHWYLQKPGQSPQLLIYKVSNRFSGVPDRFSGSGSGTDFTLKISRVEAEDVGVYYCSQNTHVPPTFGQGTKVEIERTVAAPSVFIFPPSDEQLKSGTASVVCLLNNFYPREAKVQWKVDNALQSGNSQESVTEQDSKDSTYSLSSTLTLSKADYEKHKVYACEVTHQGLSSPVTKSFNRGEC |  | binds |  |
| L234W (antibody, human IgG1, kappa, Named on the sheet only by its alteration; also called B3 variant of GpH7-B3/GpL16-k0 with L234W (no P238D)) heavy chain: not shown light chain: DIVMTQSPLSLPVTPGEPASISCQASESLVHSNRNTYLHWYLQKPGQSPQLLIYKVSNRFSGVPDRFSGSGSGTDFTLKISRVEAEDVGVYYCSQNTHVPPTFGQGTKVEIERTVAAPSVFIFPPSDEQLKSGTASVVCLLNNFYPREAKVQWKVDNALQSGNSQESVTEQDSKDSTYSLSSTLTLSKADYEKHKVYACEVTHQGLSSPVTKSFNRGEC |  | binds |  |
| G237D (antibody, human IgG1, kappa, Named on the sheet only by its alteration; also called B3 variant of GpH7-B3/GpL16-k0 with G237D (no P238D)) heavy chain: not shown light chain: DIVMTQSPLSLPVTPGEPASISCQASESLVHSNRNTYLHWYLQKPGQSPQLLIYKVSNRFSGVPDRFSGSGSGTDFTLKISRVEAEDVGVYYCSQNTHVPPTFGQGTKVEIERTVAAPSVFIFPPSDEQLKSGTASVVCLLNNFYPREAKVQWKVDNALQSGNSQESVTEQDSKDSTYSLSSTLTLSKADYEKHKVYACEVTHQGLSSPVTKSFNRGEC |  | binds |  |
